# Laboratory results reported in PMC9828297 (Acta Biochimica et Biophysica Sinica, 2022).
# B1: polyketide cyclase from Mycobacterium tuberculosis (MtPC) (natural protein)
# chain: MGSTPPRTPQEVFAHHGQALAAGDLDEIVADYADDSFVITPAGIARGKEGIRQLFVKLLDDIPNALWDLKTQIFEGDILFLEWTANSAVSRVDDGVDTFVFRDGTIWAHTVRYTPHPKT
# Biological target: the molecule itself
# Experiment: SEC
protein,measurement,value
B1,stoichiometry N,2
